Laboratory results reported in paper PMC4380549.

Biological target: FGFR3 TM-JM-YFP/mCherry (human)
Assay: FRET or BRET

percent dimer: 100%
Substance: FGFR3 TM-JM-YFP/mCherry (domain or fragment)
